Where two headings read alike, the source gives them in different places. Where a SMILES comes first, the peptide text is derived from it. Bridges are numbered along the chain shown (N, C = ends). Where no end group is shown, it is not given here.
Assays:
[1] = Peptide stability in human serum; format: in vitro ADME; details: undiluted human serum, 37° C., anti-CTT antibody dot blot
Method: (§1) FIG. 3A and 3B. Activity and stability of the tryptophan analogue containing CTT peptides. (A) Inhibition of MMP-2 using β-casein (21 IcDa) as substrate. The peptides (100 μM) were incubated with MMP-2 and β-casein (0.1 mg/ml) for 2 h and samples run on a 15% SDS-PAGE gel. (B) iCTT, 5F-CTT or a negative control peptide CERGGLETSC at a 150 μM concentration was incubated in undiluted human serum for the indicated time periods at 37° C. Samples were withdrawn, stored frozen and blotted on a nitrocellulose membrane. The level of CTT was quantitated using polyclonal anti-CTT antibody. The blots were scanned and the results shown are means ±SD from triplicate measurements. The results were similar in two other experiments.
Spectrometry and fluorometry. The absorbance spectrum for each peptide in the 200-375 nm range was measured in 20 mM Tris-HCl (pH 7.4)/50 mM NaCl/0.1 mM EDTA with Genesys 5 spectrophotometer (Thermo Spectronic, Rochester, N.Y.). The fluorescence spectra of the CTT phage cultured in the presence of tryptophan, 5FW or 6FW were measured from heat-denatured phages (2×10^9/ml) in 10 mM Tris-HCl (pH 7.5)/140 mM NaCl/1% SDS. The fluorescence emission spectra (average of three scans) at 300-500 nm were recorded with MOS-250 spectrofluorometer. The peptides were excited at 295 nm (bandwidth 5 nm) and the emission spectra recorded in the 300-500 nm range. Peptide stability in human serum. […]

[2] = Peptide stability in cell culture medium; format: in vitro ADME; details: cell culture medium with 10% heat-inactivated fetal calf serum
Method: The gelatinase inhibitory activities of the modified CTT peptides were tested in the β-casein degradation assay (FIG. 3A) and the gelatin degradation assay (data not shown). […] To determine the peptide levels, we used anti-CTT antibody that also recognized the 5F-Trp containing peptide. […] We could not determine the half-lives of 5OH-Trp and 6F-Trp containing peptides as the anti-CTT antibody recognized these peptides only weakly in the presence of serum.

MMP-2 [3] = molecular target: T1, MMP-2 (Homo sapiens, UniProt P08253); assay: Gelatin degradation assay (biotinylated gelatin), MMP-2; format: biochemical
T1 construct: purchased Roche
T1 sequence (P08253 110-660): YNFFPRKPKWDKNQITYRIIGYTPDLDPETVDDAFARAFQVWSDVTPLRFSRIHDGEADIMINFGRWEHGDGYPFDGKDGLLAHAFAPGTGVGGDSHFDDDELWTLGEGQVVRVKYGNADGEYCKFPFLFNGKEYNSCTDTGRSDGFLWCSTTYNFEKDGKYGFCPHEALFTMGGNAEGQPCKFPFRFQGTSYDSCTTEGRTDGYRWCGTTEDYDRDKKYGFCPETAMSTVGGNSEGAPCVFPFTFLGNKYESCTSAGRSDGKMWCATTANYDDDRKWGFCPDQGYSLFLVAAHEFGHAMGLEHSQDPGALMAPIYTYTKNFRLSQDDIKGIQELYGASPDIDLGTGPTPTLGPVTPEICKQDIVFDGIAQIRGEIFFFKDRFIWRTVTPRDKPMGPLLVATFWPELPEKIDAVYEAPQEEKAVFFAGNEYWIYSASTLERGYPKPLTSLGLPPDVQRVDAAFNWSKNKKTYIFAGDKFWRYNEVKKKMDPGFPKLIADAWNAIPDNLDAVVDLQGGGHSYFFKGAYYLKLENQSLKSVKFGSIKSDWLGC
Method: (§2) FIG. 1A and 1B. Inhibition of NWP-2 and MMP-9 by synthetic or intein-produced peptides. (A) MMP-9 was treated with CTT, iCTT, or STT at the peptide concentrations indicated. MMP-9 activity was determined using biotinylated gelatin. (13) The activity of the alanine mutant peptides (see Table 1) was compared to that of CTT, which inhibited MMP-2 by 100% in the gelatin degradation assay. In all assays the peptides were preincubated with the enzyme for 30 min before the substrate was added.
(§3) Gelatinase inhibition assays. Gelatiases proMMP-2 and proMMP-9 (Roche) were activated with p-aminophenylmercuric acetate or trypsin, respectively, and then incubated in the presence or absence of each peptide to be tested for 30 min. The gelatinase inhibitory activity was determined using the following three assays: (i) The degradation of biotinylated gelatin was examined using a gelatinase activity kit according to the manufacturer's instructions. (Roche). (ii) The degradation of a MMP-2 specific fluorescent peptide substrate MCA-Pro-Leu-Ala-Nva-Dpa-Ala-Arg-NH2 (Calbiochem) (2.5 μM final concentration) was followed using MOS-250 spectrofluorometer (Bio-Logic SA, Claix, France) with 330 nm excitation and 390 nm emission. (iii) The degradation of β-casein was studied by incubating activated MMP-2 with 0.1 mg/ml concentration of β-casein for 2 h at 37° C., after which the samples were analyzed on a 15% SDS-PAGE gel.

MMP-9 = molecular target: T2, MMP-9 (Homo sapiens, UniProt P14780); assay: Gelatin degradation assay (biotinylated gelatin), MMP-9; format: biochemical
T2 construct: purchased Roche
T2 sequence (P14780 107-707 limits assumed): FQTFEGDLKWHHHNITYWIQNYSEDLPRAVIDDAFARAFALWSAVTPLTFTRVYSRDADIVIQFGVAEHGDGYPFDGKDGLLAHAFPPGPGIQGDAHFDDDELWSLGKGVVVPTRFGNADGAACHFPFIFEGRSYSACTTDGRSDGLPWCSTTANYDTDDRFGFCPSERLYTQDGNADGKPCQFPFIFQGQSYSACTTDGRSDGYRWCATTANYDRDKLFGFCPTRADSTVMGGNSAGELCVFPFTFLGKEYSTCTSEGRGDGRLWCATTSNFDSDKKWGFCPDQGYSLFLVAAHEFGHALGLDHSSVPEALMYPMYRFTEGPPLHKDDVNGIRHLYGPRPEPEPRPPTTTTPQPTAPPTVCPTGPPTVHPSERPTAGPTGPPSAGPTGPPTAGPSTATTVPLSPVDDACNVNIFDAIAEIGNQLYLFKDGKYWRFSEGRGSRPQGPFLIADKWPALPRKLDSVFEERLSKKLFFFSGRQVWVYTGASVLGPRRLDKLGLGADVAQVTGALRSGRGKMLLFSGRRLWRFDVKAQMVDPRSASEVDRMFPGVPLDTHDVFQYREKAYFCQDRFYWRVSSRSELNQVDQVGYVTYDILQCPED
Method: as §2
as §3, with “(ii) The degradation of a MMP-2 specific fluorescent peptide substrate MCA-Pro-Leu-Ala-Nva-Dpa-Ala-Arg-NH2 (Calbiochem) (2.5 μM final concentration) was followed using MOS-250 spectrofluorometer (Bio-Logic SA, Claix, France) with 330 nm excitation and 390 nm emission.” left out

[4] = Solubility in water / PBS
Method: The oligonucleotide was made double-stranded using PCR. The PCR product was digested with PstI and SapI and cloned to TWIN2 intein vector (New England Biolabs), digested also with PstI and SapI. This DNA construct was electroporated into MC1061 competent cells. […] The plasmid vectors were extracted from the pool of at least 216 independent clones of MC1061. The plasmids were then electroporated to ER2566 cells enabling the production of inteins. The cells harboring the plasmids were plated on LB plates containing ampicillin. 10 independent clones were pooled to one single pool. These 10 clones in one pool were cultured and the peptides were expressed and purified with chitin affinity column and reverse-phase C18 column. Each pool of peptides was tested for activity. The solubility in PBS was also tested. […] The plasmid coding for this peptide was sequenced and the peptide was synthesized with chemical synthesis.

MMP-2 [5] = molecular target: T1, MMP-2; assay: β-casein degradation assay; format: biochemical; details: peptide 100 μM; β-casein 0.1 mg/ml, 2 h
Method: as §1
as §3, with “(ii) The degradation of a MMP-2 specific fluorescent peptide substrate MCA-Pro-Leu-Ala-Nva-Dpa-Ala-Arg-NH2 (Calbiochem) (2.5 μM final concentration) was followed using MOS-250 spectrofluorometer (Bio-Logic SA, Claix, France) with 330 nm excitation and 390 nm emission.” left out

gelatinase A (MMP-2) = molecular target: T3, gelatinase A (MMP-2) (Homo sapiens, UniProt P08253); assay: Inhibition of gelatinase A by hydrophilic CTT library peptides; format: biochemical; details: FIG. 5
T3 construct: purchased Roche
T3 sequence (P08253 110-660): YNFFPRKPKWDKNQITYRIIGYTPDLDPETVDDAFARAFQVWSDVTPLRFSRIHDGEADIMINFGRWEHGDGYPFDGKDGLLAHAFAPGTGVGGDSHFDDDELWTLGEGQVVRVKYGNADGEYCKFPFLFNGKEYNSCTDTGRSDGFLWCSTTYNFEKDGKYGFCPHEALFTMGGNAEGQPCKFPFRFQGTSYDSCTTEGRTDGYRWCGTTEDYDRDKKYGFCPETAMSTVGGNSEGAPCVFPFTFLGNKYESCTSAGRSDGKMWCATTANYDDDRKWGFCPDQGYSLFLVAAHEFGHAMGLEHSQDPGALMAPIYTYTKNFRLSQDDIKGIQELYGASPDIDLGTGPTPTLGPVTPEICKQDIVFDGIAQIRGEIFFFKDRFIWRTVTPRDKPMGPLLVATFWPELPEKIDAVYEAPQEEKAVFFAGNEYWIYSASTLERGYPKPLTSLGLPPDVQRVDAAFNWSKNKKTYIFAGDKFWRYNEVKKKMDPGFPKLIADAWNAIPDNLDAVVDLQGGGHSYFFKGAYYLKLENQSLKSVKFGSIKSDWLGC
Source text: FIG. 5. Inhibition of gelatiaase A (MMP-2) with CTT-peptide, with pool 1 and pool 2, both containing 10 different peptide derivates of CTT. The library contains 216 different combinations of CTT peptide derivates. Clone 4 from pool 1 and clone 7 from pool 2 were purified and tested also for their inhibition activity against gelatinase A.
as §3
The oligonucleotide was made double-stranded using PCR. […] This DNA construct was electroporated into MC1061 competent cells. […]

[6] = molecular target: T4, MMP-2 (gelatinase A), activated (UniProt P08253 30-660, limits assumed); assay: cell-based or functional assay
T4 sequence (looked up): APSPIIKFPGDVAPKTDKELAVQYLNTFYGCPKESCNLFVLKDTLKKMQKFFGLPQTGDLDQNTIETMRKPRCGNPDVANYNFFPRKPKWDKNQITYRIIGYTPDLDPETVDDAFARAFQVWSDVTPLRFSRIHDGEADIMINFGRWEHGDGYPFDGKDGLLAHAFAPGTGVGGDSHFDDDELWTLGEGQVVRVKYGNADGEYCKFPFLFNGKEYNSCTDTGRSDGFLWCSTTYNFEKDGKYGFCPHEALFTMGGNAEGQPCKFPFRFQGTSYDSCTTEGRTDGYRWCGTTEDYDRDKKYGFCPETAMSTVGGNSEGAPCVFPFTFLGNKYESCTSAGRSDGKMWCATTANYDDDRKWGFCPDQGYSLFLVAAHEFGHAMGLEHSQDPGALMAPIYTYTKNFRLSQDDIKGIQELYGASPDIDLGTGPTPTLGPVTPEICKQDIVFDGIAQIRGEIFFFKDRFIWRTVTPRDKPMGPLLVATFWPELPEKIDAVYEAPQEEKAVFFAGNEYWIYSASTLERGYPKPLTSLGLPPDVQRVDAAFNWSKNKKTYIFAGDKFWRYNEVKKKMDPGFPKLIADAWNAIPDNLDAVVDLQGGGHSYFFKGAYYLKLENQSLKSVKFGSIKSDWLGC

MMP-9, activated = MMP-9, activated (UniProt P14780 20-707, limits assumed); assay: cell-based or functional assay
Sequence of MMP-9, activated (P14780 20-707 limits assumed): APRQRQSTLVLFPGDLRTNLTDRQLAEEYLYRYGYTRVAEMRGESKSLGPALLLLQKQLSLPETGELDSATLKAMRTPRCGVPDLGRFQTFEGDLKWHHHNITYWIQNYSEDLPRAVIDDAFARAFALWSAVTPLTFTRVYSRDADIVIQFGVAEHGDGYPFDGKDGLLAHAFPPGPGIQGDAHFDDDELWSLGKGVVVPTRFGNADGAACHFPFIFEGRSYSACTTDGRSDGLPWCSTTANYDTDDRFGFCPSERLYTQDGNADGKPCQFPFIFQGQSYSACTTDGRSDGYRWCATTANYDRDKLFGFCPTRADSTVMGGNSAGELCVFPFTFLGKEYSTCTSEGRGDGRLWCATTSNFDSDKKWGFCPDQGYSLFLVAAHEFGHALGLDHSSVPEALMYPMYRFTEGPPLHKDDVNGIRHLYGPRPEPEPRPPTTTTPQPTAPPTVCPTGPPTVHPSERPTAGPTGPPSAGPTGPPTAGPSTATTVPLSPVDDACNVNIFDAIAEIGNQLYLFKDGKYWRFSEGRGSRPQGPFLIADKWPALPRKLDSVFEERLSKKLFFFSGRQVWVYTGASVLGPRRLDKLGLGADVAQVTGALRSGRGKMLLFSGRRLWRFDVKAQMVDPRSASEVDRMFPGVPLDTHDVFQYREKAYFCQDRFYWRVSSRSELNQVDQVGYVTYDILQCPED

Molecule: CC(C)C[C@@H]1NC(=O)[C@H]([C@@H](C)O)NC(=O)[C@H](Cc2ccccc2)NC(=O)CNC(=O)[C@H](Cc2c[nH]c3ccc(F)cc23)NC(=O)[C@H](Cc2c[nH]cn2)NC(=O)[C@H]([C@@H](C)O)NC(=O)[C@H]([C@@H](C)O)NC(=O)[C@@H](N)CSSC[C@@H](C(=O)O)NC1=O [5F-Trp containing peptide, CTTH(5FW)GFTLC] (HELM PEPTIDE1{C.T.T.H.[O=C([C@H](Cc1c[nH]c2ccc(F)cc12)N[*:1])[*:2]].G.F.T.L.C}$PEPTIDE1,PEPTIDE1,1:R3-10:R3$$$V2.0; N-terminus and C-terminus assumed)
- half-life at 150 μM [1]: 3 h
- stability compared with CTT [2]: No difference

Molecule: CC(C)C[C@@H]1NC(=O)[C@H]([C@@H](C)O)NC(=O)[C@H](Cc2ccccc2)NC(=O)CNC(=O)[C@H](Cc2c[nH]c3ccccc23)NC(=O)[C@H](Cc2c[nH]cn2)NC(=O)[C@H]([C@@H](C)O)NC(=O)[C@H]([C@@H](C)O)NC(=O)[C@@H](N)CSSC[C@@H](C(=O)O)NC1=O [CTT, CTTHWGFTLC] (HELM PEPTIDE1{C.T.T.H.W.G.F.T.L.C}$PEPTIDE1,PEPTIDE1,1:R3-10:R3$$$V2.0; bridges inferred)
- IC50 (MMP-2 [3]; 30 min preincubation, read-out: IC50, MMP-2 inhibition): 20 µM
- inhibition of MMP-2 (MMP-2 [3]; FIG. 1B): 100%
- IC50 (MMP-9; 30 min preincubation, read-out: IC50, MMP-9 inhibition): 20 µM
- solubility [4]: water-soluble

Molecule: CC(C)C[C@@H]1NC(=O)[C@H]([C@@H](C)O)NC(=O)[C@H](Cc2ccccc2)NC(=O)CNC(=O)[C@H](Cc2c[nH]c3ccccc23)NC(=O)[C@H](Cc2c[nH]cn2)NC(=O)[C@H]([C@@H](C)O)NC(=O)[C@H]([C@@H](C)O)NC(=O)[C@@H](N)CSSC[C@@H](C(=O)O)NC1=O [iCTT, CTTHWGFTLC] (HELM PEPTIDE1{C.T.T.H.W.G.F.T.L.C}$PEPTIDE1,PEPTIDE1,1:R3-10:R3$$$V2.0; N-terminus and C-terminus assumed)
- inhibition of casein degradation by MMP-2 (MMP-2 [5]): nearly complete inhibition
- half-life at 150 μM [1]: 0.5 h

Molecule: CTTAWGFTLC (disulfide 1-10 (inferred)) [H→A, Ala-substitution of the CTT-peptide]
- % of the activity in comparison to the wild type peptide (MMP-2 [3]; FIG. 1B, CTT = 100% inhibition): about 80%

Molecule: GRENYHGCTTRWGFTLC [tyrosine-containing CTT-peptide with additional hydrophilic amino acids, from the intein library]
- solubility ([4]; water or PBS): more soluble into water or PBS than the original peptide
- gelatinase A inhibitory activity (gelatinase A (MMP-2)): active

Molecule: STTHWGFTLS [non-cyclic synthetic control peptide]
- gelatinase inhibitory activity relative to iCTT (MMP-9; FIG. 1A): several fold less active than iCTT

Molecule: CTTHWAFTLC (disulfide 1-10 (inferred)) [G → A alanine mutant of CTT]
- activity in comparison to the wild type peptide, gelatin degradation assay [6]: 53 % of the activity of the wild type peptide

Molecule: CTTHWGFTLC (disulfide 1-10 (inferred)) [CTT: CTTHWGFTLC peptide (chemically synthesized)]
- IC50, gelatin degradation assay [6]: 20 µM
- IC50, gelatin degradation assay (MMP-9, activated): 20 µM

Molecule: CTTHWGFTLC (disulfide 1-10 (inferred)) [iCTT: recombinant CTTHWGFTLC peptide]
- IC50, gelatin degradation assay [6]: 20 µM
- IC50, gelatin degradation assay (MMP-9, activated): 20 µM

Molecule: CTTHAGFTLC (disulfide 1-10 (inferred)) [W → A alanine mutant of CTT]
- activity in comparison to the wild type peptide, gelatin degradation assay [6]: 17 % of the activity of the wild type peptide

Molecule: CTTHWGATLC (disulfide 1-10 (inferred)) [F → A alanine mutant of CTT]
- activity in comparison to the wild type peptide, gelatin degradation assay [6]: 36 % of the activity of the wild type peptide
